Source: patent US20210079054A1 (published 2021)

T1: recombinant human IL-31 protein (UniProt Q6EBC2 24-164)
T1 chain: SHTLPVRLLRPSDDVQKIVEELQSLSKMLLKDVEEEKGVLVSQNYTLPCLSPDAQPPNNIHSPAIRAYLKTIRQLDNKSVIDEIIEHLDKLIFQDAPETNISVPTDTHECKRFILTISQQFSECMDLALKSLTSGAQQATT


Assays:
[1] = target: recombinant canine IL-31 protein with C-terminal 6-His tag, secreted from Expi293 cells (canine); assay: cell-based or functional assay
[2] = target: T1, recombinant human IL-31 protein; assay: inhibition of IL-31/IL-31Rα interaction (ELISA); polyclonal IgG

Sequence of recombinant canine IL-31 protein with C-terminal 6-His tag, secreted from Expi293 cells (canine) (chain, as listed by the source, form in doubt): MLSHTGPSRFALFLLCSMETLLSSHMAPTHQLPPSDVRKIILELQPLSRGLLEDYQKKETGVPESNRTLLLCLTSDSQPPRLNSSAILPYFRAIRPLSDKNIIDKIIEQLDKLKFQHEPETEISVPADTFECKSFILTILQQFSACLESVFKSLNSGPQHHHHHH

Binder	IC50 of signaling inhibition (canine IL-31 induced pSTAT in DH82 monocytes) [1] [µg/mL]	inhibition of IL-31-induced pSTAT3 signaling phosphorylation [1] [%]	IC50 [2] [µg/mL]
Cytopoint (anti-IL-31 mAb), monoclonal antibody to canine IL-31 (antibody, INN chains, looked up, V domains shown) VH: EVQLVESGGDLVKPGGSLRLSCVASGFTFSNYGMSWVRQAPGKGLQWVATISYGGSYTYYPDNIKGRFTISRDNAKNTLYLQMNSLRAEDTAMYYCVRGYGYDTMDYWGQGTLVTVSS VL: EIVMTQSPASLSLSQEEKVTITCKASQSVSFAGTGLMHWYQQKPGQAPKLLIYRASNLEAGVPSRFSGSGSGTDFSFTISSLEPEDVAVYYCQQSREYPWTFGQGTKLEIK	3.21	50 to 75	
SEQ ID NO: 99 (protein) ISITEIKGVIVHRIETILFKKKKAIRAYLKTIRQLDNKSVIDEIIEHLDKLIFQDAPETNISVPTDTHECKRFILTISQQFSESMDL			1.23
SEQ ID NO: 87 (protein) ISITEIKGVIVHRIETILFKKKKLDNKSVIDEIIEHLDKLIFQDAPETNISVPTDTHECKRFILTISQQFS			0.277
